Experimental data from US20240360233A1 (University of Texas, published 2024).

Columns and labels:
[1] = biological target: T1, his-tagged TSLPR (TSLPR-HIS) (UniProt Q9HC73 23-231, limits assumed); test: BLI (ForteBio AHQ sensor), antibody captured, TSLPR-HIS in solution
T1 construct: Soluble protein used in the ForteBio assay; not shown: His tag
T1 sequence (looked up): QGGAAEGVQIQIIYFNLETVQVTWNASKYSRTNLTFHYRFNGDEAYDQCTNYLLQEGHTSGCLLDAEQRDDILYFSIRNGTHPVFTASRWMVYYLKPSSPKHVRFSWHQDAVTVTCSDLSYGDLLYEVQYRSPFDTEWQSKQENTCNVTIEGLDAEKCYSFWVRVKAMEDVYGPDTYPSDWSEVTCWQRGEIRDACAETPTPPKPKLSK
Procedure: (§1) TSLPR antibody clones whose VH and VL sequences are disclosed in Tables 9 and 10 were bound to the AHQ sensor and his-tagged TSLPR (TSLPR-HIS) was provided in solution. […] The anti-TSLPR antibodies were serially diluted with an HBS-EP solution (GE Healthcare), and 100 μL of the solution was added to the flow path at a flow rate of […].

[2] = biological target: T1, his-tagged TSLPR (TSLPR-HIS); test: BLI (ForteBio AHQ sensor), antibody captured, TSLPR-HIS and TSLP in solution; competitor TSLP
Procedure: as §1

| Binder | Kd [1] [nM] | koff [1] [s⁻¹] | kon [1] [M⁻¹ s⁻¹] | TSLPR-TSLP Response [2] [%] |
| --- | --- | --- | --- | --- |
| TSLPR antibody clone 3E5 (antibody, V domains shown, Captured on an anti-human IgG sensor) VH: EVQLLESGGGLVQPGGSLRLSCAASGFTFSSNAMSWVRQAPGKGLEWVSAIRGRGGSTYYADSVKGRFTISRDNSKNTLYLQLNSLRAEDTAVYYCAKDRIVVAGPFDHWGQGTLVTVSS VL: DIQLTQSPSFLSASVGDRVTITCRASQGISSYLAWYQQKPGKAPKLLIYAASTLQSGVPSRFSGSGSGTEFTLTISSLQPEDFATYYCQQLNRYPLTFGGGTKVDIKR | 6.81 | 0.00139 | 204000 |  |
| TSLPR antibody clone 2E4 (antibody, V domains shown, Captured on an anti-human IgG sensor) VH: EVQLLESGGGLVQPGGSLRLSCAASGFTFSSYAMNWVRQAPGKGLEWVSGISGSGGSTYYADSVKGRFTFSRDNSKNTLYLQMISLRAEDTAVYYCAKDQRITMVRGVIGAFDIWGQGTMVTVSS VL: DIQMTQSPSTLSASVGDRVTITCRASQSISSWLAWYQQKPGKAPKLLIYKASSLESGVPSRFSGSGSGTEFTLTISSLQPDDFATYYCQQYVGLITFGQGTRLEIKR | 1.01 | 0.000294 | 292000 |  |
| TSLPR antibody clone 1A10 (antibody, V domains shown, Captured on an anti-human IgG sensor) VH: QVQLQESGPGLVKPSETLSLTCNVSGGSISTYYWNWLRQPPGKGLEWIGSIYYSGTTNYNPSLKSRVTISVDTSKHQFSLRLTSVTAADTAVYFCARDQGYYHGSGSYFFDYWGQGTLVTVSS VL: EIVMTQSPATLSVSPGERATLSCRASQSVSSHLAWYQQKPGQAPRLLIYGASTRATGIPARFSGSGSGTEFTLTISSLQSEDFAIFYCQQYNNWPLTFGGGTKVDIKR | 8.9 | 0.00119 | 133000 |  |
| TSLPR antibody clone 1B9 (antibody, V domains shown, Captured on an anti-human IgG sensor) VH: QVQLQESGPGLVKPSGTLSLTCAVSGGSIRSSNWWSWVRQPPGKGLEWIGEIYHGGTTNNNPSLKSRVTISVDQSKSQFSLKLSSVTAADTAVYYCARHRYSSGLDYWGQGTLVTVSS VL: DIQMTQTPSTLSASVGDRVTITCRGSHSISNWLGWYRHKPRKAPNLLIYKASSLKSGVPSRFSGSGSGTEFTLTITSLQPDDFATYYCQQYNHYSTFGQGTKVDIKR | 2.33 | 0.00127 | 545000 |  |
| TSLPR antibody clone 1D10 (antibody, V domains shown, Captured on an anti-human IgG sensor) VH: QVQLQESGPGLVKPSETLSLTCTVSGGSISRYYWSWIRQPPGKGLEWIGYIFYNKNTNYNPSLKSRVTISVDTSKNQFSLKLSSVTAADTAVYYCARYIAAIYTDLYYFDYWGQGTLVTVSS VL: not shown | < 0.001 | < 1e-07 | 16200 |  |
| TSLPR antibody clone 2F1 (antibody, V domains shown, Captured on an anti-human IgG sensor) VH: QVQLQESGPGLVKPSETLSLTCTVSGGSISRYYWSWIRQPPGKGLEWIGYIFYNKNTNYNPSLKSRVTISVDTSKNQFSLKLSSVTAADTAVYYCARYIAAIYTDLYYFDYWGQGTLVTVSS VL: DIQLTQSPSFLSASVGDRVTITCRASQGISSYLAWYQQKPGKAPKLLIYAASTLQSGVPSRFSGSGSGTEFTLTISSLQPEDFATYHCQQLNSYPLTFGGMTKVEIKR | 4.33 | 0.000332 | 76800 | 204 |
| TSLPR antibody clone 1F6 (antibody, V domains shown, Captured on an anti-human IgG sensor) VH: QVQLVQSGAEVRKPGSSVKVSCKASGGTVSSYAISWVRQAPGQGLEWMGGITPIFGTAKYAQKFQGRVTITADKSTSTAYMELSSLRSEDTAVYYCARGGIAAAGTFDYWGQGTLVTVSS VL: not shown | 3.9 | 0.00137 | 351000 |  |
| TSLPR antibody clone 2H4 (antibody, V domains shown, Captured on an anti-human IgG sensor) VH: QVQLVQSGAEVKKPGSSVKVSCKASGGTFNSYAISWVRQAPGQGLEWMGGITPIFGTAKYAQKFQGRVTITADKSTSTTYMELSSLRSEDTAVYYCARPGIIVAGPFDYWGQGTLVTVSS VL: not shown | 5.91 | 0.0015 | 254000 | 32.2 |
| TSLPR antibody clone 1G3 (antibody, V domains shown, Captured on an anti-human IgG sensor) VH: QVQLVESGGGVVQPGRSLRLSCAASGFTFSSYGMHWVRQTPGKGLEWVAVMWYDGRNKYYADSVKGRFTISRDNSKNTLYLQMNSLRAEDTAVYYCARDRIMVRGVIIPHVFDIWGQGTMVTVSS VL: EIVMTQSPATLSVSPGERATLSCRASQSVSSNLGWYQQKPGQAPRLLIYGASTRATGIPARFSGSGSGTEFILTISSLQSEDFAVYYCQEYNNWWTFGQGTKVDIKR | 11.7 | 0.0021 | 179000 |  |
| TSLPR antibody clone 3D8 (antibody, V domains shown, Captured on an anti-human IgG sensor) VH: QVQLVESGGGVVQPGRSLRLSCAASGFTFSSYVMHWVRQAPGKGLEWVAVIWYAGNKKYYADSVKGRFTISRDNSNNTLYLQMNSLRAEDTAVYYCAREYSSSWHYYGMDVWGQGTTVTVSS VL: DIQLTQSPSFLSASVGDRVTITCRASQGISSYLAWYQQKPGKAPKLLIYAASTLQSGVPSRFSGSGSGTEFTLTISSLQPEDFATYYCQQLNSYPLTFGGGTKVDIKR | 1.16 | 0.000134 | 116000 |  |
| TSLPR antibody clone 10C4 (antibody, V domains shown, Captured on an anti-human IgG sensor) VH: QVQLQESGPGLVKPSGTLSLTCAVSGGSINSNNWWSWVRQPPGKGLEWIGDIYHSGSTNYNPSLKSRVTISVDKSKSQFSLKLSSVTAADTAVYYCARRRWLQHFDFWGQGTLVTVSS VL: DIQMTQSPSTLSASVGDRVTITCRASQSITNWLAWYQQKPGKAPKLLIYKASSLESGVPSRFSGSGSGTEFTLAISSLQPDDFATYYCQQYNIYPLAFGGGTKVEIKR | 4.86 | 0.000334 | 68800 |  |
| TSLPR antibody clone 2A4 (antibody, V domains shown, Captured on an anti-human IgG sensor) VH: QVQLVQSGAEVKKPGASVKVSCKASGYTFTGYYMHWVRQAPGQGLEWMGRFNLHSGVTNYAQKFQGRVTMTRDTSISTVYMDLSRLRSDDTAVYYCARERQWLVQDYFDYWGQGTLVTVSS VL: DIQMTQSPSSLSASVGDRVTITCRASQSISNYLNWYQQKPGKAPNLLICAASSLQSGVPSRFSGSGSGTDFTLTISSLQPEDFATYYCQQSYSIPPTFGQGTKVDIKR | 3.07 | 0.000326 | 106000 | -3.7 |
| TSLPR antibody clone 2B2 (antibody, V domains shown, Captured on an anti-human IgG sensor) VH: QVQLVESGGGVVQPGRSLRLSCAASGFTFSNYGMHWVRQAPGKGLEWVSFIWYDGSHRYYADSVKGRFTISRDNSKNTLYLQMNSLRAEDTAVYYCAKGRGGLDWYFDLWGRGTLVTVSS VL: not shown | 8.07 | 0.00324 | 401000 | 21.2 |
| TSLPR antibody clone 2D11 (antibody, V domains shown, Captured on an anti-human IgG sensor) VH: QVQLQESGPGLVKPSETLSLTCAVSGYSISSGYYWGWIRQPPGKGLEWIGRIYHSGTTSYNPSLKRRVTISVDTSKNQFSLKLSSVTATDTAVYYCARNWGGNWFDPWGQGTLVTVSS VL: DIQMTQSPSSLSASVGDRVTITCRASQGISNYLAWYQQKPGKVPKLLIYAASTLQSGVPSRFSGSGSGTDFTLTISSLQPEDVATYYCQKYNSARTFGQGTKVDIKR | 5.29 | 0.000881 | 167000 | 83.2 |
| TSLPR antibody clone 2H8 (antibody, V domains shown, Captured on an anti-human IgG sensor) VH: EVQLLESGGGLEQPGGSLRLSCAASGFTFSSHAMNWVRQAPGKGLEWVSAISGSGGSTYYADSVKGRFTISRDNSKNTLCLQMNSLRAEDTAVYYCARGHNSGWPYWGQGTLVTVSS VL: not shown | 0.806 | 0.000191 | 237000 |  |
| TSLPR antibody clone 2E6 (antibody, V domains shown, Captured on an anti-human IgG sensor) VH: EVQLLESGGNLVQPGGSLRLSCAASGFTFGSYVMTWGRQAPGKGLEWVSTISASGGSTYYADSVKGRFTISRDNSKNTLYLQMNSLRAEDTAVYYCAKDKWGKGFDIWGQGTMVTVSS VL: DIQLTQSPSFLSASVGDRVTITCRASQGISSYLAWYQQKPGKAPKLLIYAASTLQSGVPSRFSGSGSGTEFTLTISSLQPEDFATYYCQQLNSYPPTFGGGTKVEIKR | 7.63 | 0.0014 | 184000 | 82.6 |
| TSLPR antibody clone 2F5 (antibody, V domains shown, Captured on an anti-human IgG sensor) VH: EVQLVESGGGLVQSGGSLRFSCAASGFTFSSHPMNWVRQVPGKGLEWVSSISGSGGSTYYADFVKGRFTISRDNSKNTLYLQMNSLRAEDTAVYYCAKGHNSGWKYWGQGTLVTVSS VL: DIQLTQSPSFLSASVGDRVTITCRASQGISSYLAWYQQKPGKAPKLLIYAASTLQSGVPSRFSGSGSGTEFTLTISSLQPEDFATYYCQQLNSYPPTFGQGTKVDIKR | 1.28 | 0.00045 | 351000 | 120 |
| TSLPR antibody clone 2H1 (antibody, V domains shown, Captured on an anti-human IgG sensor) VH: EVQLLESGGGLVQPGGSLSLSCAASGFTFSRYGMHWVRQAPGKGLEWVSAISASGGSTYYADSVKGRFTISRDNSKNTLYLQMNSLRAEDTAVYYCAKDKWGYAFDIWGQGTTVTVSS VL: DIQMTQSPSTLSASVGDRVTITCRASQSISNWLAWYQQKPGKAPKLLIYKASSLESGVPSRFSGSGSGTEFTLTISSLQPDDFATYYCLQYNHYSTFGQGTKVDIKR |  |  |  | 80 |
